Earlier results in patent US12246031B2, “Compositions and methods for tumor immunotherapy” (CHECKMATE PHARMACEUTICALS, INC., priority 2018, dated 2025).

Molecular target: PD-L1 (Homo sapiens, UniProt Q9NZQ7)
Conditions: anti-PD-L1 antibody in clinical development

Sequence of PD-L1 (Q9NZQ7 19-290): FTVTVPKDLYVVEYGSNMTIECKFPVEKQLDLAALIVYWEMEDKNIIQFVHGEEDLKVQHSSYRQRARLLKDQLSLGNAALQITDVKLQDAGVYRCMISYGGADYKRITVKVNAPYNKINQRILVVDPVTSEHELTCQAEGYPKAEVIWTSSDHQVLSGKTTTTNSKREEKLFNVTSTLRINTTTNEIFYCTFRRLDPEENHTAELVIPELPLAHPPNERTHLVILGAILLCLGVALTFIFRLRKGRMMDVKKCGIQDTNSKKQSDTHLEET

For “MPDL3280A: anti-PD-L1 antibody under development in human clinical trials (Genetech/Roche)”, the Kd is listed as 0.4 nM.
